# Values quoted from earlier work, collected in publication PMC12990809.
# How the values were obtained:
# Test in all cases: pulldown
# Details in all cases: 20 nM protein, 1.5 uM RNA pool; 20 mM HEPES pH 7.8, 70 mM KCl, 10 mM NaCl, 10% glycerol, 2 mM DTT, 0.1 ug/uL BSA; 30 min, 4 C (protocol of this paper; not …); cited from earlier work
# [1] = biological target: YBX2 (Homo sapiens) (UniProt Q9Y2T7)
# [2] = biological target: YBX1 (Homo sapiens) (UniProt P67809)
# [3] = biological target: T1, how (Drosophila melanogaster) (UniProt O01367)
# T1 sequence: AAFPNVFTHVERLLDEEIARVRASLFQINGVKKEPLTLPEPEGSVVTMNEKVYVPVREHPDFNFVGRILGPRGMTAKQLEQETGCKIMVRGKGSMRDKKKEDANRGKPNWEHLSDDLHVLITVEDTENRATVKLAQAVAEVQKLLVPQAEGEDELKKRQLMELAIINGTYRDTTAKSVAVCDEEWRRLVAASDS
# [4] = biological target: T2, tra2 (Drosophila melanogaster) (UniProt P19018)
# T2 sequence: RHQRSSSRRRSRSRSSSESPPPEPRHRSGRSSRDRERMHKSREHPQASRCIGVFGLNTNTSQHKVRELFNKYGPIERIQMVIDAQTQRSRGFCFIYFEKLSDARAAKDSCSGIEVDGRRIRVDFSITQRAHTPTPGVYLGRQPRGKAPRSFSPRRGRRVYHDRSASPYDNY
# [5] = biological target: T3, sm (Drosophila melanogaster) (UniProt A4UZQ5)
# T3 sequence: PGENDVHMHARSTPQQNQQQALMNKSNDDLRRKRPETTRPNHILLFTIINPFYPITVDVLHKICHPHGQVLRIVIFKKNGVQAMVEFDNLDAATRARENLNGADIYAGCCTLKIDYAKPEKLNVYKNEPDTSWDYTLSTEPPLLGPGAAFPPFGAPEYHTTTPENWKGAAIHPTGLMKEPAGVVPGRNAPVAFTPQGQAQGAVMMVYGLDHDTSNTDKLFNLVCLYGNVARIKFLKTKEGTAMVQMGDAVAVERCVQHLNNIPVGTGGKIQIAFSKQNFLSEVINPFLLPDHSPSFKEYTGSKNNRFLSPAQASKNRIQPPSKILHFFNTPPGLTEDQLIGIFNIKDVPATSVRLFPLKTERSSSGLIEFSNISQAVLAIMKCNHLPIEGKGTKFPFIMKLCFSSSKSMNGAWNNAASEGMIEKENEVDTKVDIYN
# [6] = biological target: T4, Cnot4 (Drosophila melanogaster) (UniProt M9MRH8)
# T4 sequence: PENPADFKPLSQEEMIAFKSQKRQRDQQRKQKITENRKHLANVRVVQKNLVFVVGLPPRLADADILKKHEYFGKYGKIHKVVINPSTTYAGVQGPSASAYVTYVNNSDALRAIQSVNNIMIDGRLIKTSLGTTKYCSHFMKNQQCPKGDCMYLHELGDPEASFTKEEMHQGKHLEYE
# [7] = biological target: SNRNP70 (Homo sapiens) (UniProt P08621)
# Chain of SNRNP70 (Homo sapiens) (P08621 55-225): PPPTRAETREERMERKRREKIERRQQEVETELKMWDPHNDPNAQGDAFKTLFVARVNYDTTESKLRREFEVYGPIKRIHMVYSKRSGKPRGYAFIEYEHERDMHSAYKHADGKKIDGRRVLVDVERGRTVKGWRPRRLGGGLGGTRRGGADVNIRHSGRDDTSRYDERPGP
# [8] = biological target: T5, mxt (Drosophila melanogaster) (UniProt Q9VR35)
# T5 sequence: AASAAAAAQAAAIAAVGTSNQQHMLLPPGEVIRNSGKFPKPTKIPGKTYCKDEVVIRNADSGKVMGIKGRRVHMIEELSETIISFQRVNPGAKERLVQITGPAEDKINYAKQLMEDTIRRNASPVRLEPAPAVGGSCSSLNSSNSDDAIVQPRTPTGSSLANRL
# [9] = biological target: TARDBP (Homo sapiens) (UniProt Q13148)
# Chain of TARDBP (Homo sapiens) (Q13148 56-315): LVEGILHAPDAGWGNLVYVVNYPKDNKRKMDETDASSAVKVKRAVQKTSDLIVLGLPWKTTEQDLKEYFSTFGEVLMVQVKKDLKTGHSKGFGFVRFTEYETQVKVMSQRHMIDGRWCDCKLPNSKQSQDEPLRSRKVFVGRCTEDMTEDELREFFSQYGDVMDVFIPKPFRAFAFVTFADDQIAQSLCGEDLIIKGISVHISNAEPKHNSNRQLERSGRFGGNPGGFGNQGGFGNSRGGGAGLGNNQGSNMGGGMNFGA
# [10] = biological target: ZCRB1 (Homo sapiens) (UniProt Q8TBF4)
# Chain of ZCRB1 (Homo sapiens) (Q8TBF4 1-132): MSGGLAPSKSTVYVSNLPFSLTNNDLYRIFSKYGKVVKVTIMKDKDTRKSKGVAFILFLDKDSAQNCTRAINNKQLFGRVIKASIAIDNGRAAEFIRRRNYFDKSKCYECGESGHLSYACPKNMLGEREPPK
# [11] = biological target: T6, SRSF7 (Homo sapiens) (UniProt Q16629)
# T6 sequence: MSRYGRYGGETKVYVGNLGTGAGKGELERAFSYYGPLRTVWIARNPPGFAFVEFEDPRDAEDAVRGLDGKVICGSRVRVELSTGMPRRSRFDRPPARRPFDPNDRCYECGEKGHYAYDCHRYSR
# [12] = biological target: SRSF1 (Homo sapiens) (UniProt Q07955)
# Chain of SRSF1 (Homo sapiens) (Q07955 1-202): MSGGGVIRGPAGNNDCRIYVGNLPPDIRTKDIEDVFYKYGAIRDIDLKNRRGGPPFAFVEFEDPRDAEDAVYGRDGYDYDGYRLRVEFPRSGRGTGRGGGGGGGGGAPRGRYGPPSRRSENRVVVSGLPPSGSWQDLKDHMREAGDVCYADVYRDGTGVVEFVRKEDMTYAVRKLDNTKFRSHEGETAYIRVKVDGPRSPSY
# [13] = biological target: T7, ZC3H10 (Homo sapiens) (UniProt Q96K80)
# T7 sequence: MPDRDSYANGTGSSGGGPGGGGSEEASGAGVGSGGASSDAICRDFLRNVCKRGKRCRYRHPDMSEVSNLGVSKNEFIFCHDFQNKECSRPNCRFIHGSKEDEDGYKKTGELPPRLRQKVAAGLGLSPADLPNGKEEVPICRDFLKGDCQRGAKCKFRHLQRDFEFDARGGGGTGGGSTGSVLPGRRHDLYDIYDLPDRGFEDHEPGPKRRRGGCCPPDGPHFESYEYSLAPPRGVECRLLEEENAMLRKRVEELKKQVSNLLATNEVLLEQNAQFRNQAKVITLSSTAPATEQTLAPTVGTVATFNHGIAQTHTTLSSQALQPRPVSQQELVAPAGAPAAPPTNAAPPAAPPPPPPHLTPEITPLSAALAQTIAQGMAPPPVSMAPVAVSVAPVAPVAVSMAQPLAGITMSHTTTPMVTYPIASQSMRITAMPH
# [14] = biological target: T8, VTS1 S437M (Saccharomyces cerevisiae) (UniProt Q08831)
# T8 sequence: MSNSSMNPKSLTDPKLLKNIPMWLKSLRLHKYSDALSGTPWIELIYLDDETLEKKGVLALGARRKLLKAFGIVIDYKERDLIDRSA
# [15] = biological target: Hrb98DE (Drosophila melanogaster) (UniProt P07909)
# Chain of Hrb98DE (Drosophila melanogaster) (P07909 whole entry): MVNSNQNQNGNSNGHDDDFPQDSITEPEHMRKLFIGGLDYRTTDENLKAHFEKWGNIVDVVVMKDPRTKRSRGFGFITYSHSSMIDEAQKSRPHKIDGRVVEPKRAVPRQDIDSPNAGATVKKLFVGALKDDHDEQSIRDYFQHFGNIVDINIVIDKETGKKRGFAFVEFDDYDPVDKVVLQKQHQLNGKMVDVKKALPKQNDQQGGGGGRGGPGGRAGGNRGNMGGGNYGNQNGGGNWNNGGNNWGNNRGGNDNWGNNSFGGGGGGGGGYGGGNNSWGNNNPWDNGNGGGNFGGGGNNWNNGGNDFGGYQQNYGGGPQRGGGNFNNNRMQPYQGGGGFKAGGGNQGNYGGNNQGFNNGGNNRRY
# [16] = biological target: T9, msi (Drosophila melanogaster) (UniProt H9ZJL0)
# T9 sequence: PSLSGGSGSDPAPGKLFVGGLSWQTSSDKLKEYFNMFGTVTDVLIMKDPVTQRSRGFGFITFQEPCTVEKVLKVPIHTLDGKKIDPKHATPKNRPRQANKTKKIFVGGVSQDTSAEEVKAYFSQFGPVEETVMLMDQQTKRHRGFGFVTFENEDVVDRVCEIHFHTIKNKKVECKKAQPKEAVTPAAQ
# [17] = biological target: T10, bru-3 (Drosophila melanogaster) (UniProt Q7K305)
# T10 sequence: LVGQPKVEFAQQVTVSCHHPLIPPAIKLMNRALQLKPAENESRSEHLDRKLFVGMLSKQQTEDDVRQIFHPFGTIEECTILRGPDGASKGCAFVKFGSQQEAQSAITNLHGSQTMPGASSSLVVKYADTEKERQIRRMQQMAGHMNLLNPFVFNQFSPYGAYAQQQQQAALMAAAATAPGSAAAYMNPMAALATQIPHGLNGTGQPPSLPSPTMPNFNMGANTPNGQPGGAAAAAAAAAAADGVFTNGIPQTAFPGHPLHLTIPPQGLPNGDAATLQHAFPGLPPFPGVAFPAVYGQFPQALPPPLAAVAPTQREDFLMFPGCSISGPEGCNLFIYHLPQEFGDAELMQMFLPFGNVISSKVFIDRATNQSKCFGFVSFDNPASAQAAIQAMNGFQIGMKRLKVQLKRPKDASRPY
# [18] = biological target: T11, A2bp1 (Drosophila melanogaster) (UniProt Q9VT99)
# T11 sequence: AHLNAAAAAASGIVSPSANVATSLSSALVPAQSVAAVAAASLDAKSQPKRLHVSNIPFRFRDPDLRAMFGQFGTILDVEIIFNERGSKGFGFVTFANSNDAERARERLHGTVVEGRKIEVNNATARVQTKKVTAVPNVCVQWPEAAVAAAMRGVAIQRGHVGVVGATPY
# [19] = biological target: unc-75 (Caenorhabditis elegans) (UniProt G5EE68)
# [20] = biological target: SNRPA (Homo sapiens) (UniProt P09012)
# Chain of SNRPA (Homo sapiens) (P09012 whole entry): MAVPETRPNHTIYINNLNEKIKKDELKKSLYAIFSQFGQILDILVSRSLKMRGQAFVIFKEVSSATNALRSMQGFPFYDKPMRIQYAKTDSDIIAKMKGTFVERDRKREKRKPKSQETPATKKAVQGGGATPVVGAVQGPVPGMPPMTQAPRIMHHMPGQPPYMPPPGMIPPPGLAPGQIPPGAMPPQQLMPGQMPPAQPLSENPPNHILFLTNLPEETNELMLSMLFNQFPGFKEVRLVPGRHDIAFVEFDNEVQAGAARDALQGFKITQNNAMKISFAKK
# [21] = biological target: U2AF2 (Homo sapiens) (UniProt P26368)
# Chain of U2AF2 (Homo sapiens) (P26368 101-475): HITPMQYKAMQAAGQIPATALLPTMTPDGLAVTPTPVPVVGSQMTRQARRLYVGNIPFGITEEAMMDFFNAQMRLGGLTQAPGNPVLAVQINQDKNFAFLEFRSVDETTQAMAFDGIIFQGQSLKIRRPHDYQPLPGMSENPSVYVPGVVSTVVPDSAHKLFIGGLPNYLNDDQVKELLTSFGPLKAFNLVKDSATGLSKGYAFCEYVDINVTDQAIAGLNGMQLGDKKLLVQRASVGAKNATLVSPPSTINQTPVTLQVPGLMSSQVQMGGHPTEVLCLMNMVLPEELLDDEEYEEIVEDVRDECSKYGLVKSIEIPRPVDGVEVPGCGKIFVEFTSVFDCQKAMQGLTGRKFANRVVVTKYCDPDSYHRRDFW
# [22] = biological target: U2af50 (Drosophila melanogaster) (UniProt Q24562)
# Chain of U2af50 (Drosophila melanogaster) (Q24562 45-416): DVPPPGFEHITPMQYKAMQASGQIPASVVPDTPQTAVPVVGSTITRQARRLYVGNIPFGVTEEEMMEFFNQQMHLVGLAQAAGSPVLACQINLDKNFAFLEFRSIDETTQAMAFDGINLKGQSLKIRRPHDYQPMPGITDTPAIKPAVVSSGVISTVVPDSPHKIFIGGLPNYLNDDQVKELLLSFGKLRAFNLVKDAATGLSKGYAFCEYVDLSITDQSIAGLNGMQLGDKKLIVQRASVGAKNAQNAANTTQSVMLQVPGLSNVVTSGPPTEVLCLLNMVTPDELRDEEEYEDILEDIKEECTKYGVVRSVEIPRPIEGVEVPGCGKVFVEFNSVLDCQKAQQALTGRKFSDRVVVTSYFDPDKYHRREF
# [23] = biological target: T12, TIA1 (Homo sapiens) (UniProt P31483)
# T12 sequence: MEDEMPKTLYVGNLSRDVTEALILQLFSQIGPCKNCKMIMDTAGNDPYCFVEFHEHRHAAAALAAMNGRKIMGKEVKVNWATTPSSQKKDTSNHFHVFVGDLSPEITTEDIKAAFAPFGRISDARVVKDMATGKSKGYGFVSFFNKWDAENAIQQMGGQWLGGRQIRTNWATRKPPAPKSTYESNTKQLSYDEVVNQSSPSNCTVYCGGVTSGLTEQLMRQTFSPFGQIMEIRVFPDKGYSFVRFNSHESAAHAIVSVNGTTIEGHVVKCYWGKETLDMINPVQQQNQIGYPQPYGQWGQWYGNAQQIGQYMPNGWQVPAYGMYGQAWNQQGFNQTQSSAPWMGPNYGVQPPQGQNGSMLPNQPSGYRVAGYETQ
# [24] = biological target: T13, orb2 (Drosophila melanogaster) (UniProt Q9VSR3)
# T13 sequence: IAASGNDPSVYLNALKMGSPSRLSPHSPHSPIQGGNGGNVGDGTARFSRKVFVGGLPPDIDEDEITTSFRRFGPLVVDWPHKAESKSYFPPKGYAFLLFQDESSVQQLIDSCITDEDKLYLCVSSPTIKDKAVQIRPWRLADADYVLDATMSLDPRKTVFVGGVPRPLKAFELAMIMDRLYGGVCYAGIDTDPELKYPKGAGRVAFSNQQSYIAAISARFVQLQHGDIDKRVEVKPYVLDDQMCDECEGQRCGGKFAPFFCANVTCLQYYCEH
# [25] = biological target: T14, Sxl (Drosophila melanogaster) (UniProt P19339)
# T14 sequence: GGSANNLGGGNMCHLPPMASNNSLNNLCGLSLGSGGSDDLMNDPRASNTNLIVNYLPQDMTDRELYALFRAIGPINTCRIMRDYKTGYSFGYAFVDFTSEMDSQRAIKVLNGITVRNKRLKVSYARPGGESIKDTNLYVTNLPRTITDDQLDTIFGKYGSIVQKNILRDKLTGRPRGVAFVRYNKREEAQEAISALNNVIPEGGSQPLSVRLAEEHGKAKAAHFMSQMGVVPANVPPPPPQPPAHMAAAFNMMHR
# [26] = biological target: fne (Drosophila melanogaster) (UniProt Q7KIS3)
# Chain of fne (Drosophila melanogaster) (Q7KIS3 entry or part of it): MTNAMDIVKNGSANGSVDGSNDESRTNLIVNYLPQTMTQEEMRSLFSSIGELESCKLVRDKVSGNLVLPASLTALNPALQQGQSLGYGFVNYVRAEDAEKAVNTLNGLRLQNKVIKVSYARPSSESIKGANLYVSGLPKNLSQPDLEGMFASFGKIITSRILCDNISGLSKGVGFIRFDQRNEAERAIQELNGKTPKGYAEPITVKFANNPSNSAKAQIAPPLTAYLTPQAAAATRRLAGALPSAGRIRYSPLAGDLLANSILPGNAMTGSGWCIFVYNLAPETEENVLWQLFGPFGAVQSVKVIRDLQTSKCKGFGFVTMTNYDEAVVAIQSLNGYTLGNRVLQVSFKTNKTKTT
# [27] = biological target: T15, elav (Drosophila melanogaster) (UniProt P16914)
# T15 sequence: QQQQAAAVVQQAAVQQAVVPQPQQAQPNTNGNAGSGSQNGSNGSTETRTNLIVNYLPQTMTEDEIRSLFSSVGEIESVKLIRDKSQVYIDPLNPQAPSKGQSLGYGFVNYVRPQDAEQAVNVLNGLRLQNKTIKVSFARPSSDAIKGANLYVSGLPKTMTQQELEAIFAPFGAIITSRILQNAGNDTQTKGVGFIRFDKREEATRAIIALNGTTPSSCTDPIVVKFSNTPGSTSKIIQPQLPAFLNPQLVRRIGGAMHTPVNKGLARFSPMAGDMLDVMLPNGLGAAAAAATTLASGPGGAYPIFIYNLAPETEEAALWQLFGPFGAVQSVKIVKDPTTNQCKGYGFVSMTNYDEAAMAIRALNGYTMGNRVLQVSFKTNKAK
# Chain of YBX1 (Homo sapiens) (P67809 whole entry): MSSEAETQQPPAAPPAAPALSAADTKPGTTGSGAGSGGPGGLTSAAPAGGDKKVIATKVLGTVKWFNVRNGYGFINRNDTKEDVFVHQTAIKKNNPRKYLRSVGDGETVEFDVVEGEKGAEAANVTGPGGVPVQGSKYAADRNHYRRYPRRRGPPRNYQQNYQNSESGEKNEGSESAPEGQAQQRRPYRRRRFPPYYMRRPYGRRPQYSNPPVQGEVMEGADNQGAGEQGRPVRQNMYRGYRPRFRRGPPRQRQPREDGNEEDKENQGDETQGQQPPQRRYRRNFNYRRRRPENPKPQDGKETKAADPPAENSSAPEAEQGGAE
# Chain of YBX2 (Homo sapiens) (Q9Y2T7 whole entry): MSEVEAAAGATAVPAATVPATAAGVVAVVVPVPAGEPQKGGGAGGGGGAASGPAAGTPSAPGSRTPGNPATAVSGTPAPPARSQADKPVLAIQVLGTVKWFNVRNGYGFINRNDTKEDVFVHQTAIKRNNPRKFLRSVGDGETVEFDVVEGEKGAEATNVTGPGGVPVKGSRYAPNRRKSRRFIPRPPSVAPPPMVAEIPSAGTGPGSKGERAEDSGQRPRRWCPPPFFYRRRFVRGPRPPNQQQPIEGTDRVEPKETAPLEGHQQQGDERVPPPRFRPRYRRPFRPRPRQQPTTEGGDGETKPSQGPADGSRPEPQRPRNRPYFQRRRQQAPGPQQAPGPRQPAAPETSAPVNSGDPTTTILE
substance,measurement,setting,value
AACANC [RNAcompete motif RNCMPT00084],binding signal (z-score (mean of top ten 7-mers)),[1],9.95
AACAUC [RNAcompete motif RNCMPT00083],binding signal (z-score (mean of top ten 7-mers)),[2],14.5
ACUAAC [RNAcompete motif RNCMPT00118],binding signal (z-score (mean of top ten 7-mers)),[3],25.4
AGAAGA [RNAcompete motif RNCMPT00078],binding signal (z-score (mean of top ten 7-mers)),[4],7.09
AGACAC [RNAcompete motif RNCMPT00069],binding signal (z-score (mean of top ten 7-mers)),[5],11.2
AGACACA [RNAcompete motif RNCMPT00008],binding signal (z-score (mean of top ten 7-mers)),[6],12.4
AUCAAG [RNAcompete motif RNCMPT00070],binding signal (z-score (mean of top ten 7-mers)),[7],8.16
CAACGA [RNAcompete motif RNCMPT00007],binding signal (z-score (mean of top ten 7-mers)),[8],13.9
GAAUGA [RNAcompete motif RNCMPT00076],binding signal (z-score (mean of top ten 7-mers)),[9],9.33
GAAUUAAG [RNAcompete motif RNCMPT00087],binding signal (z-score (mean of top ten 7-mers)),[10],12
GACGACG [RNAcompete motif RNCMPT00073],binding signal (z-score (mean of top ten 7-mers)),[11],11.3
GAGGAGC [RNAcompete motif RNCMPT00163],binding signal (z-score (mean of top ten 7-mers)),[12],11.3
GCAGCGCG [RNAcompete motif RNCMPT00085],binding signal (z-score (mean of top ten 7-mers)),[13],16.6
GCUGGCC [RNAcompete motif RNCMPT00111],binding signal (z-score (mean of top ten 7-mers)),[14],24.3
GGUAGGG [RNAcompete motif RNCMPT00096],binding signal (z-score (mean of top ten 7-mers)),[15],21.8
GUAGUU [RNAcompete motif RNCMPT00099],binding signal (z-score (mean of top ten 7-mers)),[16],11.6
GUGUUGU [RNAcompete motif RNCMPT00122],binding signal (z-score (mean of top ten 7-mers)),[17],20.4
UGCAUG [RNAcompete motif RNCMPT00123],binding signal (z-score (mean of top ten 7-mers)),[18],21.3
UGUUGUG [RNAcompete motif RNCMPT00081],binding signal (z-score (mean of top ten 7-mers)),[19],10.4
UUGCACA [RNAcompete motif RNCMPT00071],binding signal (z-score (mean of top ten 7-mers)),[20],10.9
UUUUUCC [RNAcompete motif RNCMPT00079],binding signal (z-score (mean of top ten 7-mers)),[21],17
UUUUUCC [RNAcompete motif RNCMPT00080],binding signal (z-score (mean of top ten 7-mers)),[22],12.8
UUUUUU [RNAcompete motif RNCMPT00165],binding signal (z-score (mean of top ten 7-mers)),[23],9.41
UUUUUUG [RNAcompete motif RNCMPT00126],binding signal (z-score (mean of top ten 7-mers)),[24],15.9
UUUUUUU [RNAcompete motif RNCMPT00119],binding signal (z-score (mean of top ten 7-mers)),[25],17.2
UUUUUUU [RNAcompete motif RNCMPT00120],binding signal (z-score (mean of top ten 7-mers)),[26],12.7
UUUUUUU [RNAcompete motif RNCMPT00121],binding signal (z-score (mean of top ten 7-mers)),[27],17.2
